These results are taken from paper PMC6491428.

For data set [1], the system named is TH1N1 (influenza A H1N1 target protein; protein identity not stated in the material) (Influenza A virus H1N1 (strain not stated)). Nature of the data set: electrochemical DPV (Apta-DEPSOR).
For data set [2] the test system is unchanged. Nature of the data set: SPR. For orientation: In SPR one partner is held on a chip, and binding of the other changes the refractive index at the surface.
In data set [3] the test system is TH3N2 (influenza A H3N2 target protein; protein identity not stated in the material) (Influenza A virus H3N2 (strain not stated)). In words: electrochemical DPV (Apta-DEPSOR).
Data set [4] shares this test system. In words: SPR.

For the sequence “AGCAGCACAGAGGTCAGATGATTGGATCGTGACGGTTGTTGGGGCTCCGCCTATCGCTGCTACCGTGAA [Apt01>TH1N1]”, the binding signal in data set [1] is 0.85 µA (Ipc). Moreover, the Kd (usually a measure of binding affinity in units of concentration) in data set [2] is 35000 nM.

Turning to “AGCAGCACAGAGGTCAGATGAGGTGATGAGATTTGTACCTCTCGCGGCACCCTATCGCTGCTACCGTGAA [Apt02>TH1N1]”, the binding signal in data set [1] was 2.26 µA (Ipc). This sequence showed a dissociation constant (Kd) in data set [2] of 57 nM.

As to “AGCAGCACAGAGGTCAGATGGCGCGGGCGGTGCGTCGGTGTCCCGCTGGCCTATCGCTGCTACCGTGAA [Apt03>TH3N2]”, in data set [3], the binding signal is 1.11 µA (Ipc). In data set [4], this sequence returned a Kd of 0.6 nM.

Turning to “AGCAGCACAGAGGTCAGATGTAGGTCGTACTCTGGCGGCCTGTTTGGCCCTATCGCTGCTACCGTGAA [Apt03>TH1N1]”, in data set [1], the binding signal was 3.37 µA (Ipc). This sequence also came in with a binding signal (fold lower signal than with TH1N1) in data set [3] of 5. In data set [2], this sequence had a Kd of 0.082 nM.

As to “AGCAGCACAGAGGTCAGATGCTAGCCGTGAGCGTGGTGAGCTCGGTTGACCCTATCGCTGCTACCGTGAA [Apt01>TH3N2]”, the binding signal (fold lower signal than with TH3N2) in data set [1] was 9. Moreover, the binding signal in data set [3] is 1.73 µA (Ipc). For the same sequence, in data set [4], the dissociation constant Kd was 0.14 nM.

“AGCAGCACAGAGGTCAGATGTGTGCGTGCTTGGGGTATAGTCGGGTCGGCCTATCGCTGCTACCGTGAA [Apt04>TH1N1]”: the binding signal in data set [1] was 1.23 µA (Ipc). The Kd in data set [2] is 1.6 nM.

Take “AGCAGCACAGAGGTCAGATGTCTGCAGCGTGCAGGGCTGTGTGCTTACCCCCTATCGCTGCTACCGTGAA [Apt04>TH3N2]”: the binding signal in data set [3] was 1.61 µA (Ipc). The dissociation constant Kd in data set [4] came out at 0.088 nM.

Turning to “AGCAGCACAGAGGTCAGATGGTGGTTGTTTTGGGCGAAGTGGCCATGGTCCCTATCGCTGCTACCGTGAA [Apt02>TH3N2]”, the binding signal in data set [3] was 1.16 µA (Ipc). In data set [4], this sequence had a Kd of 1.7 nM.
